Source: the supplement of paper PMC10567573

B1: LRRC45 (parent)
chain: DLSAANEKNLLLQNQVDELERKFR

Variants of: B1
Test: protein stability index of a GFP-peptide fusion (GPS, HEK-293T) (PSI 1-6); higher = more stable
Details: c terminus: a fixed tail appended
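Note: lentivirally expressed fusions sorted by FACS into six bins by GFP to DsRed ratio, PSI derived from sequencing read proportions per bin multiplied by bin number.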

Protein stability index: each site, then its substitutions
V16: C 3.88; E 4.72; G 3.69; P 4.09; W 3.55; R 4.17; Q 4.29
K8: M 4; V 3.85; E 4.56
L10: W 3.89; A 4.18; P 4.75; T 4.26; H 4.62; F 3.94; N 4.17; E 4.94; D 4.86
L12: W 3.48; I 4.25; M 3.87; A 4.37; N 4.01; G 4.03; T 3.64; F 4.09; K 3.77
E20: L 3.23; M 2.81; P 3.12; C 3.73
D1: I 3.93; H 4.42; T 3.83; A 4.6; R 4.41; G 4.55
Q15: N 3.75; C 3.84; W 3.27; F 2.32; S 4.42; G 4.36; M 3.77
Q13: S 3.98; V 4.53; K 4.32; L 3.96; G 4.11; T 4.11; I 3.6; P 3.8; A 4.25; F 3.44
F23: K 4.33; C 4.01; R 3.86; Y 3.85; Q 4.29; S 4.36; G 4.6
R21: Q 4.09; S 4.23; W 3.63; N 4.47; T 4; A 4.09; D 4.28
L2: D 5.31; T 4.92; G 4.78; E 5.13; S 4.86; F 4.54; N 4.64; P 4.67; R 4.86; K 5.06
L19: N 4.27; A 4.58; R 3.68; I 4.24; Y 3.48; G 4.41; S 4.34; P 3.78
E18: M 3.23; I 2.49; Y 3.26; L 3.31
N6: H 4.27; L 3.8; M 3.97; E 4.69; D 5.02; R 4.61
E7: R 3.84; V 3.46; W 2.72; T 3.69; N 3.01; Y 2.98; D 4.73; I 3.2; M 3.14; K 3.7; F 2.88; Q 3.63
S3: V 3.89; E 4.86; C 3.74; K 4.15; R 4.26
K22: V 3.27; C 3.47; Y 3.34; W 3.14; F 3; R 3.22; G 3.62; P 3.88; E 4.26; H 3.86
A5: K 4.33; S 4.39; G 4.22; E 4.01; L 3.83; D 3.69; W 3.34; T 3.91; F 3.79; M 3.62
N9: C 4.23; V 4.12; H 4.2
D17: G 3.46; Q 3.66; T 2.96; M 3.58; P 3.57; R 2.97; F 2.81; I 3.01
L11: S 4.31; A 4.42; T 3.86; W 3.89; K 4.57; P 4.32; C 4.15
R24: K 4.66; C 4.36; G 4.48; A 4.69; P 4.59
N14: I 3.05; G 4.11; E 4.19; A 3.95; V 3.62; P 3.69
A4: E 4.53; G 3.77; F 3.61; P 4.11
